Assay results as given in US20260201396, “New LoxPsym Sites for Large-Scale Orthogonal Cre-Mediated Recombination” (VIB VZW, published 2026).
Positions count from the first letter of the chain named.

T1: Cre recombinase (Punavirus P1)
T1 chain: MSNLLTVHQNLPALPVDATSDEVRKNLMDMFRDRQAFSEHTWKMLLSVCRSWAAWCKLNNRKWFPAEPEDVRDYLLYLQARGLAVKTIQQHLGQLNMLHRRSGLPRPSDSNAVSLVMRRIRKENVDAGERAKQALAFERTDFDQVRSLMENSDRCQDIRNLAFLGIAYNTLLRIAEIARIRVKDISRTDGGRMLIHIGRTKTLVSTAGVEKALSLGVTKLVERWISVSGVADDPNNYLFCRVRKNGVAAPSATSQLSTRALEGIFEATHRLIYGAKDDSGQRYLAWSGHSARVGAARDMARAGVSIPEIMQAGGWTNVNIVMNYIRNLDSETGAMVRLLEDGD

B1: LoxPsym-AGC (dsDNA)
DNA 1: ATAACTTCGTATAAGCTAGCTTATACGAAGTTAT
DNA 2: B1 DNA 1
B2: LoxPsym-CTC (dsDNA)
DNA 1: B1 DNA 1 with A14C, G15T, C20A, T21G
DNA 2: B1 DNA 1 with A14C, G15T, C20A, T21G
B3: LoxPsym-ACA (dsDNA)
DNA 1: B1 DNA 1 with G15C, C16A, G19T, C20G
DNA 2: B1 DNA 1 with G15C, C16A, G19T, C20G
B4: LoxPsym-TCA (dsDNA)
DNA 1: ATAACTTCGTATATCATATGATATACGAAGTTAT
DNA 2: B4 DNA 1
B5: LoxPsym-GTG (dsDNA)
DNA 1: ATAACTTCGTATAGTGTACACTATACGAAGTTAT
DNA 2: B5 DNA 1
B6: LoxPsym-ACC (dsDNA)
DNA 1: B1 DNA 1 with G15C, C20G
DNA 2: B1 DNA 1 with G15C, C20G
B7: LoxPsym-ATT (dsDNA)
DNA 1: B1 DNA 1 with G15T, C16T, G19A, C20A
DNA 2: B1 DNA 1 with G15T, C16T, G19A, C20A
B8: LoxPsym-ATA (dsDNA)
DNA 1: B1 DNA 1 with G15T, C16A, G19T, C20A
DNA 2: B1 DNA 1 with G15T, C16A, G19T, C20A
B9: LoxPsym-TCT (dsDNA)
DNA 1: B4 DNA 1 with A16T, T19A
DNA 2: B4 DNA 1 with A16T, T19A
B10: LoxPsym-AGT (dsDNA)
DNA 1: B1 DNA 1 with C16T, G19A
DNA 2: B1 DNA 1 with C16T, G19A
B11: LoxPsym-GGC (dsDNA)
DNA 1: B1 DNA 1 with A14G, T21C
DNA 2: B1 DNA 1 with A14G, T21C
B12: LoxPsym-CTA (dsDNA)
DNA 1: B5 DNA 1 with G14C, G16A, C19T, C21G
DNA 2: B5 DNA 1 with G14C, G16A, C19T, C21G
B13: LoxPsym-AAG (dsDNA)
DNA 1: B1 DNA 1 with G15A, C16G, G19C, C20T
DNA 2: B1 DNA 1 with G15A, C16G, G19C, C20T
B14: LoxPsym-GTC (dsDNA)
DNA 1: B5 DNA 1 with G16C, C19G
DNA 2: B5 DNA 1 with G16C, C19G
B15: LoxPsym-TTT (dsDNA)
DNA 1: B5 DNA 1 with G14T, G16T, C19A, C21A
DNA 2: B5 DNA 1 with G14T, G16T, C19A, C21A
B16: LoxPsym-GGG (dsDNA)
DNA 1: B5 DNA 1 with T15G, A20C
DNA 2: B5 DNA 1 with T15G, A20C
B17: LoxPsym-AAC (dsDNA)
DNA 1: B1 DNA 1 with G15A, C20T
DNA 2: B1 DNA 1 with G15A, C20T
B18: LoxPsym-GAA (dsDNA)
DNA 1: B5 DNA 1 with T15A, G16A, C19T, A20T
DNA 2: B5 DNA 1 with T15A, G16A, C19T, A20T
B19: LoxPsym-CGT (dsDNA)
DNA 1: B1 DNA 1 with A14C, C16T, G19A, T21G
DNA 2: B1 DNA 1 with A14C, C16T, G19A, T21G
B20: LoxPsym-AGG (dsDNA)
DNA 1: B1 DNA 1 with C16G, G19C
DNA 2: B1 DNA 1 with C16G, G19C
B21: LoxPsym-CTT (dsDNA)
DNA 1: B5 DNA 1 with G14C, G16T, C19A, C21G
DNA 2: B5 DNA 1 with G14C, G16T, C19A, C21G
B22: LoxPsym-ACG (dsDNA)
DNA 1: B1 DNA 1 with G15C, C16G, G19C, C20G
DNA 2: B1 DNA 1 with G15C, C16G, G19C, C20G
B23: LoxPsym-CCT (dsDNA)
DNA 1: B4 DNA 1 with T14C, A16T, T19A, A21G
DNA 2: B4 DNA 1 with T14C, A16T, T19A, A21G
B24: LoxPsym-CTG (dsDNA)
DNA 1: B5 DNA 1 with G14C, C21G
DNA 2: B5 DNA 1 with G14C, C21G
B25: LoxPsym-CCA (dsDNA)
DNA 1: B4 DNA 1 with T14C, A21G
DNA 2: B4 DNA 1 with T14C, A21G
B26: LoxPsym-CGA (dsDNA)
DNA 1: B1 DNA 1 with A14C, C16A, G19T, T21G
DNA 2: B1 DNA 1 with A14C, C16A, G19T, T21G
B27: LoxPsym-ATC (dsDNA)
DNA 1: B1 DNA 1 with G15T, C20A
DNA 2: B1 DNA 1 with G15T, C20A
B28: LoxPsym-TGA (dsDNA)
DNA 1: B4 DNA 1 with C15G, G20C
DNA 2: B4 DNA 1 with C15G, G20C
B29: LoxPsym-TCG (dsDNA)
DNA 1: B4 DNA 1 with A16G, T19C
DNA 2: B4 DNA 1 with A16G, T19C
B30: LoxPsym-GCA (dsDNA)
DNA 1: B4 DNA 1 with T14G, A21C
DNA 2: B4 DNA 1 with T14G, A21C
B31: LoxPsym-AGA (dsDNA)
DNA 1: B1 DNA 1 with C16A, G19T
DNA 2: B1 DNA 1 with C16A, G19T
B32: LoxPsym-CAA (dsDNA)
DNA 1: B4 DNA 1 with T14C, C15A, G20T, A21G
DNA 2: B4 DNA 1 with T14C, C15A, G20T, A21G
B33: LoxPsym-TTC (dsDNA)
DNA 1: B1 DNA 1 with A14T, G15T, C20A, T21A
DNA 2: B1 DNA 1 with A14T, G15T, C20A, T21A
B34: LoxPsym-GTA (dsDNA)
DNA 1: B5 DNA 1 with G16A, C19T
DNA 2: B5 DNA 1 with G16A, C19T
B35: LoxPsym-GTT (dsDNA)
DNA 1: B5 DNA 1 with G16T, C19A
DNA 2: B5 DNA 1 with G16T, C19A
B36: LoxPsym-GCC (dsDNA)
DNA 1: B1 DNA 1 with A14G, G15C, C20G, T21C
DNA 2: B1 DNA 1 with A14G, G15C, C20G, T21C
B37: LoxPsym-TAA (dsDNA)
DNA 1: B4 DNA 1 with C15A, G20T
DNA 2: B4 DNA 1 with C15A, G20T
B38: LoxPsym-CCC (dsDNA)
DNA 1: B1 DNA 1 with A14C, G15C, C20G, T21G
DNA 2: B1 DNA 1 with A14C, G15C, C20G, T21G
B39: LoxPsym-GAC (dsDNA)
DNA 1: B1 DNA 1 with A14G, G15A, C20T, T21C
DNA 2: B1 DNA 1 with A14G, G15A, C20T, T21C
B40: LoxPsym-TGG (dsDNA)
DNA 1: B1 DNA 1 with A14T, C16G, G19C, T21A
DNA 2: B1 DNA 1 with A14T, C16G, G19C, T21A
B41: LoxPsym-CGC (dsDNA)
DNA 1: B1 DNA 1 with A14C, T21G
DNA 2: B1 DNA 1 with A14C, T21G

Target: T1, Cre recombinase
Assay: cell_activity; as above
Source text: Similar to the development of the original LoxPsym site by Hoess et al. (1986 J Cell Biochem), we edited the spacer of the LoxP site to obtain new non-directional recombination sites. In doing so, we focused on altering the first three nucleotides of the spacer (FIG. 2), as it was shown before that changing the nucleotides at position 4 and 5 of the spacer (T and A respectively) prevents recombination (Hoess et al 1986). The last three nucleotides were adapted accordingly to ensure the spacer remained palindromic. As such, we were able to design maximally 63 new potential LoxPsym sites. To test if the Cre enzyme was still able to recombine the new LoxPsym variants, we conducted a fluorescent-based assay in yeast via genomic integration of a fluorescence cassette which was flanked by identical LoxPsym variants at both sites (FIGS. 3A and 3C). Recombination of functional LoxPsym variants enables the deletion of the fluorescence cassette. The fraction of non-fluorescent cells in the population after induction of Cre-mediated recombination, was used to determine the recombination efficiency of the new LoxPsym sites. To verify if this set-up is valid for estimation of the recombination efficiency, the dual-fluorescent-reporter system shown in FIG. 3A was used to assess the frequency of inversion/deletion over time. […] Recombination efficiencies largely altered between different LoxPsym variants (Table 1). 63 new LoxPsym variants were obtained with altering recombination efficiencies ranging from 13% to 89%.
Work on B1 yielded an activity of 32.6%.
With B2 the activity was 38.2%.
B3 was tested, and the activity was 38.3%.
B4 showed an activity of 39.9%.
In the case of B5, the activity is reported as 40.3%.
B6 showed an activity of 41.4%.
In the case of B7, the activity is reported as 42.2%.
With B8 the activity was 43.1%.
B9 gave an activity of 43.3%.
B10 gave an activity of 43.4%.
With B11 the activity was 43.6%.
B12 was tested, and the activity was 34.1%.
B13 was tested, and the activity was 44.1%.
B14 showed an activity of 44.3%.
With B15 the activity was 44.5%.
In the case of B16, the activity is reported as 45.6%.
Work on B17 yielded an activity of 46%.
In the case of B18, the activity is reported as 46.2%.
In the case of B19, the activity is reported as 46.9%.
B20 was tested, and the activity was 49.1%.
With B21 the activity was 34.8%.
Binder B22 has an activity of 51.1%.
With B23 the activity was 51.2%.
For B24, the activity was 53.1%.
With B25 the activity was 53.9%.
For B26, the activity was 54.4%.
Binder B27 has an activity of 56.5%.
Work on B28 yielded an activity of 58.8%.
B29 showed an activity of 59%.
Work on B30 yielded an activity of 59.1%.
With B31 the activity was 35.1%.
B32 showed an activity of 59.7%.
With B33 the activity was 62.3%.
Binder B34 has an activity of 64.3%.
Work on B35 yielded an activity of 64.6%.
For B36, the activity was 65.1%.
With B37 the activity was 65.5%.
In the case of B38, the activity is reported as 67.2%.
B39 gave an activity of 67.4%.
Binder B40 has an activity of 69.1%.
In the case of B41, the activity is reported as 69.4%.
